Experimental data published in patent US20240376151A1, “STAPLED PEPTIDES AND METHODS THEREOF” (FOG PHARMACEUTICALS, INC., priority 2022, published 2024).

Target: T1, beta-catenin (Homo sapiens, UniProt P35222)
T1 construct: made in house; host or cells: E. coli BL21 (DE3) pLysS
T1 sequence (P35222 134-665): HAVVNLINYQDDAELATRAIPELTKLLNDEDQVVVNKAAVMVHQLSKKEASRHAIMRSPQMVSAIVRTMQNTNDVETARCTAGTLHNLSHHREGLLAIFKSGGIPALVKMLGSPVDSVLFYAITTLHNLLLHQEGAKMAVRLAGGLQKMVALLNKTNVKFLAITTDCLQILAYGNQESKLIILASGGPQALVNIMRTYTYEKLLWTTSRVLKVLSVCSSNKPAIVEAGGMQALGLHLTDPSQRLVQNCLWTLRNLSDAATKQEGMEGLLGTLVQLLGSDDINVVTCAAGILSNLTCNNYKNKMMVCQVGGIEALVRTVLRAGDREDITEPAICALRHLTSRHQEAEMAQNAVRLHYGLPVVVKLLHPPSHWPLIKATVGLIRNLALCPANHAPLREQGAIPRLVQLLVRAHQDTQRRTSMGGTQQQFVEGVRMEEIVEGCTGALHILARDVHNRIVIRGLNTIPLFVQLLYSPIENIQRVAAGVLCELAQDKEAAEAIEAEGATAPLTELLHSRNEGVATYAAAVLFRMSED
Test: Phage Library Screening with NGS, beta-catenin
Assay type: binding
Conditions: for Target Concentration 10 (phage screen NGS readout): beta-catenin target concentration 10; for Target Concentration 10 (phage screen NGS readout) / Target Concentration 30 (phage screen NGS readout) / Target Concentration 100 (phage screen NGS readout) / Target Concentration 300 (phage screen NGS readout): no competitor; for Target Concentration 30 (phage screen NGS readout): beta-catenin target concentration 30; for Target Concentration 100 (phage screen NGS readout): beta-catenin target concentration 100; for Target Concentration 300 (phage screen NGS readout): beta-catenin target concentration 300; for Target Concentration 1000 (phage screen NGS readout): beta-catenin target concentration 1000

Row | Target Concentration BLANK (phage screen NGS readout) (first column) | Target Concentration BLANK (phage screen NGS readout) (fourth column) | Target Concentration BLANK (phage screen NGS readout) (second column) | Target Concentration BLANK (phage screen NGS readout) (third column) | Target Concentration 10 (phage screen NGS readout) | Target Concentration 30 (phage screen NGS readout) | Target Concentration 100 (phage screen NGS readout) | Target Concentration 300 (phage screen NGS readout) | Target Concentration 1000 (phage screen NGS readout) (first 1000 column) | Target Concentration 1000 (phage screen NGS readout) (second 1000 column) | Sequence
1 | 0 | 0 | 0 | 0 | 0 | 6 | 20 | 18 | 21 | 57 | DPASWRCEHAALNCQID
2 | 0 | 3 | 0 | 0 | 2 | 1 | 6 | 8 | 1 | 44 | DPAILDCHIAAIQCFHD
3 | 0 | 0 | 1 | 2 | 28 | 127 | 422 | 637 | 830 | 731 | DPAWWQCDHAALICIAE
4 | 0 | 0 | 0 | 0 | 0 | 9 | 40 | 54 | 39 | 42 | DPAILQCYEAAFSCHYQ
5 | 0 | 0 | 2 | 0 | 0 | 1 | 22 | 51 | 69 | 40 | DPAESDCILAAYICYVE
6 | 0 | 0 | 0 | 0 | 6 | 6 | 6 | 13 | 15 | 23 | DPAMSQCNWAAVHCQLL
7 | 0 | 0 | 0 | 0 | 8 | 2 | 20 | 59 | 86 | 41 | DPAILECHMAAFECYIE
8 | 0 | 0 | 0 | 0 | 0 | 0 | 11 | 13 | 12 | 23 | DPAHLMCHYAAWDCRDE
9 | 0 | 0 | 2 | 0 | 8 | 55 | 242 | 194 | 337 | 260 | DPAEHDCMLAAHFCRHF
10 | 0 | 0 | 0 | 0 | 2 | 6 | 46 | 158 | 145 | 152 | DPAMWICEHAALNCEIR
11 | 0 | 0 | 2 | 0 | 0 | 1 | 39 | 81 | 78 | 49 | DPADTECILAAHFCHYF
12 | 0 | 0 | 0 | 0 | 8 | 26 | 67 | 109 | 142 | 130 | DPAEVECMLAAHVCRAF
13 | 0 | 0 | 0 | 0 | 0 | 0 | 11 | 33 | 33 | 27 | DPAEWICEHAALLCSVL
14 | 0 | 0 | 0 | 0 | 0 | 0 | 2 | 3 | 19 | 0 | DPAIFNCTMAALECTQI
15 | 0 | 0 | 0 | 0 | 0 | 0 | 3 | 34 | 21 | 38 | DPATIRCYEAAFMCQYW
16 | 0 | 0 | 0 | 3 | 0 | 0 | 0 | 13 | 12 | 30 | DPAVIQCYQAAFHCDYQ
17 | 0 | 0 | 1 | 0 | 0 | 0 | 0 | 0 | 3 | 3 | DPAVIACYDAAFVCEYF
18 | 0 | 0 | 2 | 1 | 0 | 1 | 21 | 15 | 52 | 25 | DPAFLTCHIAAWACSEQ
19 | 0 | 0 | 0 | 0 | 0 | 6 | 22 | 21 | 25 | 55 | DPAILDCQLAAMDCSTW
